Changes are numbered by the printed parent chain.

The source of these data is US20260035450A1 (Novo Nordisk, published 2026).

The experiment addresses T1, recombinant human ANGPTL3 (rhANGPTL3) (SEQ ID NO:1) (human, UniProt Q9Y5C1 17-460).
T1 sequence: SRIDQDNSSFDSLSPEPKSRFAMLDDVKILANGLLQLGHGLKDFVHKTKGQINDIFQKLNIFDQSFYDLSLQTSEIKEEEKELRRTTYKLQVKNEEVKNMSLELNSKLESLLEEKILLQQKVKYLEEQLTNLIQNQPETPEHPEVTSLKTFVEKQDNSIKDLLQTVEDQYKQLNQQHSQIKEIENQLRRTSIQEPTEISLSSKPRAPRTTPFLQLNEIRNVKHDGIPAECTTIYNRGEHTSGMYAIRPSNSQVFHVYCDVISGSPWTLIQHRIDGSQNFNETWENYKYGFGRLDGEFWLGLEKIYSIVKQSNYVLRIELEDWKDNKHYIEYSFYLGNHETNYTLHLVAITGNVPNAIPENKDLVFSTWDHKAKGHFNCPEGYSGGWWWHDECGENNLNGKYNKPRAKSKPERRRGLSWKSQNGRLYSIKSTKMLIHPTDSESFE
Put plainly: cell-based or functional assay.

B1: tmAb1 (antibody, human IgG1, kappa)
heavy: EVQLLESGGGLVQPGGSLRLSCAASGFNFRSYWMTWVRQAPGKGLEWVSSISSHSTYIYYADSVKGRFTISRDNSKNTLYLQMNSLRAEDTATYYCAREGWYDNWFDPWGQGTLVTVSSASTKGPSVFPLAPSSKSTSGGTAALGCLVKDYFPEPVTVSWNSGALTSGVHTFPAVLQSSGLYSLSSVVTVPSSSLGTQTYICNVNHKPSNTKVDKKVEPKSCDKTHTCPPCPAPEYLGGDSVFLFPPKPKDVLYITREPEVTCVVIDVSHEDPEVKFNWYVDGVEVHNAKTKPREEQYNSTYRVVSVLPVLHRDWLNGKEYKCKVSNKALPKPIEKTISKAKGQRREPQVYTLPPSREEMTKNQVSLWCLVKGFYPSDIAVEWESNGQPENNYKTTPPVLDSDGSFFLYSKLTVDKSRWQQGNVFSCSVMHEALHNHYTQKSLSLSP
chain: DKTHTCPPCPAPEYLGGDSVFLFPPKPKDVLYITREPEVTCVVIDVSHEDPEVKFNWYVDGVEVHNAKTKPREEQYNSTYRVVSVLPVLHRDWLNGKEYKCKVSNKALPKPIEKTISKAKGQRREPQVYTLPPSREEMTKNQVSLSCAVKGFYPSDIAVEWESNGQPENNYKTTPPVLDSDGSFFLVSKLTVDKSRWQQGNVFSCSVMHEALHNHYTQKSLSLSP
light: EIVLTQSPGTLSLSPGERATLSCRASQNIRSPYLAWYQQKPGQAPRLLIYGVSSRAAGIPDRFSGSGSGTDFTLTISRLEPEDFAVYYCQQYDDHPYTFGQGTKLEIKRTVAAPSVFIFPPSDEQLKSGTASVVCLLNNFYPREAKVQWKVDNALQSGNSQESVTEQDSKDSTYSLSSTLTLSKADYEKHKVYACEVTHQGLSSPVTKSFNRGEC
B1: the “Average relative IC50 (inhibition of rhANGPTL3-mediated LPL inhibition)” value was 3.7 relative to evinacumab SIA.

B2: tmAb4 (antibody, human IgG1, kappa)
heavy: B1 heavy with R30E, F106N
chain: B1 chain
light: B1 light
Regarding B2, the “Average relative IC50 (inhibition of rhANGPTL3-mediated LPL inhibition)” value is 1.3 relative to evinacumab SIA.

B3: tmAb3 (antibody, human IgG1, kappa)
heavy: B1 heavy with R30E
chain: B1 chain
light: B1 light
B3: the “Average relative IC50 (inhibition of rhANGPTL3-mediated LPL inhibition)” value was 4.8 relative to evinacumab SIA.

B4: tmAb2 (antibody, human IgG1, kappa)
heavy: B1 heavy with G26D
chain: B1 chain
light: B1 light
For B4, the “Average relative IC50 (inhibition of rhANGPTL3-mediated LPL inhibition)” value was 2.5 relative to evinacumab SIA.
